Source: PMC5665954, “Coupling fission and exit of RAB6 vesicles at Golgi hotspots through kinesin-myosin interactions” (Nature Communications, 2017)

Experiments:
[1] = target: GST-Myosin II-1148-1652 (human) (UniProt P35579); assay: ELISA; solid-phase assay: 96-well plates coated with 10 µg GST-GFP, GST-Myosin II-1148-1652 or GST-RAB6A:GTP; 0-40 µg 6xHis-RAB6:GTP or 6xHis-KIF20A-529-665 added; 20 mM Hepes pH 7.5, 100 mM NaCl, 5 mM MgCl2; detection with anti-6xHis antibodies, absorbance at 450 nm
[2] = target: the molecule itself; assay: crystal structure; complex of RAB6A-Q72L-8-195 and KIF20A-603-665 at 10 mg/ml; 100 mM Hepes pH 7.4, 200 mM ammonium sulfate, 24% PEG 8K, 2% isopropanol, 17 °C; 2 Å

For “6xHis-RAB6:GTP (from UniProt P20340 1-208) (natural protein)”, which fold lower affinity than RAB6 and Myosin II-1148-1652 have for KIF20A-RBD-529-665 [1] is on record?
The fold lower affinity than RAB6 and Myosin II-1148-1652 have for KIF20A-RBD-529-665 was 5 fold.

B1: KIF20A fragment (603-665) (domain or fragment, UniProt P97329 603-665, looked up)
chain: EQWCSERLDNQKELMEELYEEKLKILKESLTTFYQEQIQERDEKIEELETLLQEAKQQPAAQQ
notes: Parallel right-handed coiled-coil dimer with an inter-helical cysteine bridge; also called KIF20A-RBD; source: E. coli BL21 (DE3), co-expressed with m20, purified (Glutathione Sepharose 4B, rTEV cleavage, Ni-NTA); not shown: GST, N-terminal, cleaved
For B1, which “stoichiometry N” value [2] is on record?
Its value is 2.
